Assay results taken from article doi:10.1101/2023.08.25.554800, “CryoEM architecture of a native stretch-sensitive membrane microdomain” (bioRxiv, 2023).

Molecular target: the molecule itself
Test: cryo-EM structure; 15-20uM recombinant Pil1 with ~2mg/mL LUVs of three lipid mixtures (-PI(4,5)P2/+sterol, +PI(4,5)P2/-sterol, +PI(4,5)P2/+sterol), 30°C for 1hr, 20 mM HEPES pH 7.4, 150 mM KoAc, 2 mM MgAc; helical reconstruction

B1: Recombinant Pil1 (natural protein, S. cerevisiae, UniProt P53252 1-339, looked up)
chain: MHRTYSLRNSRAPTASQLQNPPPPPSTTKGRFFGKGGLAYSFRRSAAGAFGPELSRKLSQLVKIEKNVLRSMELTANERRDAAKQLSIWGLENDDDVSDITDKLGVLIYEVSELDDQFIDRYDQYRLTLKSIRDIEGSVQPSRDRKDKITDKIAYLKYKDPQSPKIEVLEQELVRAEAESLVAEAQLSNITRSKLRAAFNYQFDSIIEHSEKIALIAGYGKALLELLDDSPVTPGETRPAYDGYEASKQIIIDAESALNEWTLDSAQVKPTLSFKQDYEDFEPEEGEEEEEEDGQGRWSEDEQEDGQIEEPEQEEEGAVEEHEQVGHQQSESLPQQTTA
notes: Pil1 of S. cerevisiae, PIL1 cloned into pCoofy6; the printed primers run from the ATG to the stop codon; The N-terminal position of Sumo3 is read from the primer LP1-Sumo3-Pil1-fwd; also called reconstituted Pil1; source: E. coli BL21(DE3)pLysS, purified (HisTrap, HiTrap Q, Sumo3 cleaved with SenP2, Superdex 200); not shown: Sumo3, N-terminal, cleaved
- binding result: binds
